Measured values published in publication PMC11834443, “Allosteric regulation of pyruvate kinase enables efficient and robust gluconeogenesis by preventing metabolic conflicts and carbon overflow” (mSystems, 2025).

Legend:
[1] = target: T1, wild-type full length pyruvate kinase (WT Pyk) (Bacillus subtilis, UniProt P80885); test: LDH-coupled assay, NADH absorbance at […] nm; type: biochemical
[2] = target: T1, wild-type full length pyruvate kinase (WT Pyk); test: LDH-coupled assay, fit to nonessential activation equation; type: biochemical
[3] = target: T1, wild-type full length pyruvate kinase (WT Pyk); type: biochemical
[4] = target: the molecule itself; test: SEC; 100 µL of 100 µM protein on Superdex200 26/60; 20 mM Tris-Cl pH 7.5, 300 mM NaCl, 1 mM EDTA, 1 mM DTT, 10% glycerol; 3 mL/min, 4°C; mass from a standard curve of partition coefficients
purified protein = substrate: Nc1ncnc2c1ncn2[C@@H]1O[C@H](COP(=O)(O)OP(=O)(O)O)[C@@H](O)[C@H]1O; test: purified protein; conditions: pH 7.5

For `Nc1ncnc2c1ncn2[C@@H]1O[C@H](COP(=O)(O)OP(=O)(O)OP(=O)(O)O)[C@@H](O)[C@H]1O` [ATP], the Ki [1] was 520 ± 50 µM.

`O=P(O)(O)OC[C@H]1OC(O)[C@H](O)[C@@H]1O` (stereo partly shown) [R5P] was tested, and the Kd [2] was 570 ± 40 µM.

For `Nc1ncnc2c1ncn2[C@@H]1O[C@H](COP(=O)(O)O)[C@@H](O)[C@H]1O` [AMP], the “LDH-coupled assay, NADH absorbance at 340 nm” value [3] was “wild-type B. subtilis pyruvate kinase was activated by AMP or R5P (Fig. S3a)”.

B1: Bacillus subtilis pyruvate kinase, wild-type full length (enzyme, B. subtilis, UniProt P80885 1-585, looked up)
chain: MRKTKIVCTIGPASESIEMLTKLMESGMNVARLNFSHGDFEEHGARIKNIREASKKLGKNVGILLDTKGPEIRTHTMENGGIELETGKELIISMDEVVGTTDKISVTYEGLVHDVEQGSTILLDDGLIGLEVLDVDAAKREIKTKVLNNGTLKNKKGVNVPGVSVNLPGITEKDARDIVFGIEQGVDFIAPSFIRRSTDVLEIRELLEEHNAQDIQIIPKIENQEGVDNIDAILEVSDGLMVARGDLGVEIPAEEVPLVQKELIKKCNALGKPVITATQMLDSMQRNPRPTRAEASDVANAIFDGTDAIMLSGETAAGSYPVEAVQTMHNIASRSEEALNYKEILSKRRDQVGMTITDAIGQSVAHTAINLNAAAIVTPTESGHTARMIAKYRPQAPIVAVTVNDSISRKLALVSGVFAESGQNASSTDEMLEDAVQKSLNSGIVKHGDLIVITAGTVGESGTTNLMKVHTVGDIIAKGQGIGRKSAYGPVVVAQNAKEAEQKMTDGAVLVTKSTDRDMIASLEKASALITEEGGLTSHAAVVGLSLGIPVIVGLENATSILTDGQDITVDASRGAVYQGRASVL
notes: This looks larger than the untagged protein, although the methods say the His tag was removed with TEV protease; also called WT Pyk; WT; source: E. coli BL21 (DE3), purified (HisTrap FF, TEV digestion, size-exclusion chromatography); not shown: His6, N-terminal, cleaved
B1 was tested, and the “stoichiometry N” value [4] was 4 and the Km (purified protein) was 1010 ± 30 µM.

B2: Bacillus subtilis pyruvate kinase lacking the extra C-terminal domain (residues 1-474) (domain or fragment, B. subtilis, UniProt P80885 1-474, looked up)
chain: MRKTKIVCTIGPASESIEMLTKLMESGMNVARLNFSHGDFEEHGARIKNIREASKKLGKNVGILLDTKGPEIRTHTMENGGIELETGKELIISMDEVVGTTDKISVTYEGLVHDVEQGSTILLDDGLIGLEVLDVDAAKREIKTKVLNNGTLKNKKGVNVPGVSVNLPGITEKDARDIVFGIEQGVDFIAPSFIRRSTDVLEIRELLEEHNAQDIQIIPKIENQEGVDNIDAILEVSDGLMVARGDLGVEIPAEEVPLVQKELIKKCNALGKPVITATQMLDSMQRNPRPTRAEASDVANAIFDGTDAIMLSGETAAGSYPVEAVQTMHNIASRSEEALNYKEILSKRRDQVGMTITDAIGQSVAHTAINLNAAAIVTPTESGHTARMIAKYRPQAPIVAVTVNDSISRKLALVSGVFAESGQNASSTDEMLEDAVQKSLNSGIVKHGDLIVITAGTVGESGTTNLMKVHTVGD
notes: pyruvate kinase (Pyk) of Bacillus subtilis, N-terminal residues 1-474, without the extra C-terminal domain (ECTD); in pLIC-trPC-HA (plasmid pJW724); This looks larger than untagged residues 1-474, although the methods say the His tag was removed with TEV protease; also called PykΔECTD; ΔECTD pyruvate kinase; source: E. coli BL21 (DE3), purified (HisTrap FF, TEV digestion, size-exclusion …)
B2 was tested, and the “stoichiometry N” value [4] was 4 and the Km (purified protein) was 1830 ± 240 µM.
